Data published in patent US20120316071A1 (published 2012).
Substitutions are numbered along the chain they refer to. Names may count otherwise. Values belong to the binder of their own block, whether it stands above or below them.

What was measured:
[1] = molecular target: T1, rHuman CD44/Fc Chimera, CF (R&D Systems Cat#3660-CD) (human, UniProt P16070 21-220); experiment: ECL (MSD) multispot binding assay, antigen spotted on plate, 20 nM Fab;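 note: purified Fab incubated 1 h at 20 °C on antigen-spotted plate, bound Fab revealed with TAG detection antibody, ECL read, antigen signal divided by same-well blank, ratio ≥4 counted as hit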
T1 construct: Bought recombinant protein; Fc part of the bought chimera not given

[2] = molecular target: T2, rHuman IGF-1 sR, (IGF-1 sR), CF (R&D Systems Cat#391-GR) (human, UniProt P08069 31-932); experiment: as above
T2 construct: Bought recombinant soluble receptor; also called insulin-like growth factor-1 soluble receptor

[3] = molecular target: T3, Recombinant Human DLL4 (R&D Systems Cat#1506-D4/CF) (human, UniProt Q9NR61 27-524); experiment: as above
T3 construct: Bought recombinant protein; also called delta-like protein 4; rHuman DLL4

[4] = molecular target: T4, rHuman P-Cadherin/Fc Chimera, CF (R&D Systems Cat#861-PC) (human, UniProt P22223 108-654); experiment: as above
T4 construct: Bought recombinant protein; Fc part of the bought chimera not given

[5] = molecular target: T5, rHuman Notch-1/Fc Chimera, CF (R&D Systems Cat#3647-TK) (human, UniProt P46531 19-526); experiment: as above
T5 construct: Bought recombinant protein; Fc part of the bought chimera not given

[6] = molecular target: T6, rHuman Erythropoietin R/Fc Chimera, CF (R&D Systems Cat#963-ER) (human, UniProt P19235 25-250); experiment: as above
T6 construct: Bought reagent; also called EPO R; EPO R/Fc; Fc part of the bought chimera not given
T6 sequence (looked up): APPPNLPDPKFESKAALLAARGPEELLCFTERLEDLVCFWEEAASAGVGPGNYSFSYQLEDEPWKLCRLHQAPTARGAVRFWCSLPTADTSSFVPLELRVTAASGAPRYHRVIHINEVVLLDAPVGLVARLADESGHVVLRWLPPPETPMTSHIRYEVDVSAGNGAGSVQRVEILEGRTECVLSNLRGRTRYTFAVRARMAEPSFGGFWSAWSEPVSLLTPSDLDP

[7] = molecular target: T7, Recombinant Human DLL4 (R&D Systems Cat#1506-D4/CF) (human, UniProt Q9NR61 27-524); experiment: as above; remark: listed apart in the source
T7 construct: Bought recombinant protein; also called delta-like protein 4; rHuman DLL4

[8] = molecular target: T8, rHuman P-Cadherin/Fc Chimera, CF (R&D Systems Cat#861-PC) (human, UniProt P22223 108-654); experiment: as above
T8 construct: Bought reagent; Fc part of the bought chimera not given

[9] = molecular target: T9, rHuman IGF-1 sR, CF (R&D Systems Cat#391-GR) (human, UniProt P08069 31-932); experiment: as above
T9 construct: Bought soluble receptor; also called insulin-like growth factor-1 soluble receptor

[10] = molecular target: T10, rHuman CD44/Fc Chimera, CF (R&D Systems Cat#3660-CD) (human, UniProt P16070 21-220); experiment: as above
T10 construct: Bought reagent; Fc part of the bought chimera not given

[11] = molecular target: T11, rHuman ErbB2/Fc Chimera, CF (R&D Systems Cat#1129-ER) (human, UniProt P04626 23-652); experiment: as above
T11 construct: Bought reagent; also called human epidermal growth factor 2 receptor; Fc part of the bought chimera not given

[12] = molecular target: T12, rHuman Notch-1/Fc Chimera, CF (R&D Systems Cat#3647-TK) (human, UniProt P46531 19-526); experiment: ECL multispot (MSD) assay, antigen spotted on plate, 10 nM Fab;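 note: bound Fab detected with a TAG-labelled detection antibody (1 h, 20 °C), electrochemiluminescence read and compared with each well's blank, signal/blank of 4 or above scored as hit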
T12 construct: Bought recombinant Fc chimera; Fc part of the bought chimera not given

[13] = molecular target: T13, rHuman HGF R/c-MET/Fc Chimera, CF (R&D Systems Cat#358-MT/CF) (human, UniProt P08581 25-932); experiment: as above
T13 construct: Bought recombinant Fc chimera; also called HGF R/Fc; hepatocyte growth factor receptor; Fc part of the bought chimera not given

[14] = molecular target: T14, rHuman ErbB2/Fc Chimera, CF (R&D Systems Cat#1129-ER) (human, UniProt P04626 23-652); experiment: as above
T14 construct: Bought recombinant Fc chimera; also called human epidermal growth factor 2 receptor; Fc part of the bought chimera not given

[15] = molecular target: T15, rHuman Erythropoietin R/Fc Chimera, CF (R&D Systems Cat#963-ER) (human, UniProt P19235 25-250); experiment: as above
T15 construct: Bought recombinant Fc chimera; also called EPO R; EPO R/Fc; Fc part of the bought chimera not given
T15 sequence (looked up): T6 sequence (looked up)

[16] = molecular target: T16, rHuman IGF-1 sR, CF (R&D Systems Cat#391-GR) (human, UniProt P08069 31-932); experiment: as above
T16 construct: Bought soluble receptor; also called insulin-like growth factor-1 soluble receptor

[17] = molecular target: T17, Recombinant Human DLL4 (R&D Systems Cat#1506-D4/CF) (human, UniProt Q9NR61 27-524); experiment: as above
T17 construct: Bought recombinant protein; also called delta-like protein 4; rHuman DLL4

[18] = molecular target: T18, rHuman P-Cadherin/Fc Chimera, CF (R&D Systems Cat#861-PC) (human, UniProt P22223 108-654); experiment: as above
T18 construct: Bought recombinant Fc chimera; Fc part of the bought chimera not given

[19] = molecular target: T19, rHuman CD44/Fc Chimera, CF (R&D Systems Cat#3660-CD) (human, UniProt P16070 21-220); experiment: as above
T19 construct: Bought recombinant Fc chimera; Fc part of the bought chimera not given

[20] = molecular target: T20, rHuman EGF R/Fc Chimera, CF (R&D Systems Cat#344-ER) (human, UniProt P00533 25-645); experiment: as above
T20 construct: Bought recombinant Fc chimera; also called epidermal growth factor receptor; Fc part of the bought chimera not given

[21] = molecular target: T21, Recombinant Human DLL4 (R&D Systems Cat#1506-D4/CF) (human, UniProt Q9NR61 27-529); experiment: surface plasmon resonance, Fab against recombinant human DLL4; standard deviation in parentheses
T21 construct: Bought recombinant protein; also called rHuman DLL4; delta-like protein 4

Recombinant Human DLL4 [22] = molecular target: T22, Recombinant Human DLL4 (human, UniProt Q9NR61 27-524); experiment: ECL (MSD) 96-well plate assay, DLL4 coated at 15 ug/mL, Fab 0.02 uM; signal over blank
T22 construct: Bought recombinant human DLL4 (R&D Systems Cat#1506-D4/CF), coated on the plate; also called delta-like protein 4; rHuman DLL4

Recombinant Human DLL4 [23] = molecular target: T22, Recombinant Human DLL4; experiment: ECL (MSD) 96-well plate assay, DLL4 coated at 30 ug/mL, Fab 0.1 uM; signal over blank

T13 sequence (P08581 25-932, change not shown): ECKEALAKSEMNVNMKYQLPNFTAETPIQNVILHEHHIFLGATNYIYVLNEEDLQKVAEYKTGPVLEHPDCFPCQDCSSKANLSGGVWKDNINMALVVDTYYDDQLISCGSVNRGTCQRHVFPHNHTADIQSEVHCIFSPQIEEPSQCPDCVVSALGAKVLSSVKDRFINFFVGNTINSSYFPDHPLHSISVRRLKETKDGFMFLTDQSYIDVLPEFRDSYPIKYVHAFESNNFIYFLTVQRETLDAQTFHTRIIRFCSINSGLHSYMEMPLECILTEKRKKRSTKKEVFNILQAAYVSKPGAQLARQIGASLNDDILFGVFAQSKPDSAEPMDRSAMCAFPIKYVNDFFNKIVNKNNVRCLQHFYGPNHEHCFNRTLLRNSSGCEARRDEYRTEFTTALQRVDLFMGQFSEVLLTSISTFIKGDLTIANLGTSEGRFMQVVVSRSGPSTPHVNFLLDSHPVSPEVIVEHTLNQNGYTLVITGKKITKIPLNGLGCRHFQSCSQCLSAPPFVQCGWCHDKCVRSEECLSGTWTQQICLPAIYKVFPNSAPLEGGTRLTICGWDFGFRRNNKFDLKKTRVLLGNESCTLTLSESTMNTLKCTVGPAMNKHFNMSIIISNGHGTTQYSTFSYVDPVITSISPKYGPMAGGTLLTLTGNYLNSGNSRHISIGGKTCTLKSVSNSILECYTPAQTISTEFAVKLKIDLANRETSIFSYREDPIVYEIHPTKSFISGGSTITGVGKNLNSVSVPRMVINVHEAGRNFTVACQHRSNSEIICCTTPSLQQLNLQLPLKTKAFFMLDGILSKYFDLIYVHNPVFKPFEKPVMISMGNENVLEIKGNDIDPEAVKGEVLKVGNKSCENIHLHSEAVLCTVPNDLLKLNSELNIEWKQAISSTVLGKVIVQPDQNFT

ECL signal/blank ratio [1]: 1.3
ECL signal/blank ratio [2]: 1.2
ECL signal/blank ratio [3]: 1.6
ECL signal/blank ratio [4]: 7.7
ECL signal/blank ratio [5]: 1.5
B1: Fab VH3-23_IGHD2-21*01>3_IGHJ6*01 H100E/S108P/Y113G/Y111H & V2-13_IGLJ2*01 (Fab, V domains shown)
VH: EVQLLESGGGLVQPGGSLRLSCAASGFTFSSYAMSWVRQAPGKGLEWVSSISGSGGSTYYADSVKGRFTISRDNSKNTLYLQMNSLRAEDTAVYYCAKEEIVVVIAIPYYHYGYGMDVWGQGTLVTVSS
VL: SSELTQDPAVSVALGQTVRITCQGDSLRSYYASWYQQKPGQAPVLVIYGKNNRPSGIPDRFSGSSSGNTASLTITGAQAEDEADYYCNSRDSSGNHLVVFGGGTKLTVL
notes: Fab made in E. coli: VH joined to CH1 (with His and Flag tags, plasmid A) and VL to lambda CL (plasmid E); also called EPG Y111H

ECL multispot value [6]: 120
ECL multispot value [7]: 2.3
ECL multispot value [8]: 27
ECL multispot value [9]: 1.4
ECL multispot value [10]: 1.8
ECL multispot value [11]: 12.5
B2: Fab VH3-23_IGHD2-21*01>3_IGHJ6*01 H100E/S108P/Y113G Y114H & V2-13_IGLJ2*01 (Fab, V domains shown)
VH: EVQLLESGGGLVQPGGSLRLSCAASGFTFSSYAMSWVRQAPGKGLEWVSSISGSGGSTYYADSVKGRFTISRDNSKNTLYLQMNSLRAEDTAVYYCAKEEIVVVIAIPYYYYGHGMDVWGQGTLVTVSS
VL: B1 VL
notes: Tested as Fab made in E. coli (VH-CH1 with His and Flag tags; lambda CL); also called EPG Y114H

ECL signal [12]: 381
ECL signal [13]: 221
ECL signal [14]: 474
ECL signal [15]: 305
ECL signal [16]: 392
ECL signal [17]: 14500
ECL signal [18]: 426
ECL signal [19]: 365
ECL signal [20]: 217
B3: Fab VH1-46_IGHD6-6*01_IGHJ1*01 S102A/S103P/S104F/H111F G55A & L6_IGKJ1*01 (Fab, V domains shown)
VH: QVQLVQSGAEVKKPGASVKVSCKASGYTFTSYYMHWVRQAPGQGLEWMGIINPSAGSTSYAQKFQGRVTMTRDTSTSTVYMELSSLRSEDTAVYYCAREEYAPFSAEYFQFWGQGTLVTVSS
VL: not shown
notes: Fab (CH1 with His6/Flag tags from Plasmid A, kappa CL from Plasmid C); also called APFF G55A

ECL signal [12]: 331
ECL signal [13]: 313
ECL signal [14]: 279
ECL signal [15]: 466
ECL signal [16]: 422
ECL signal [17]: 189000
ECL signal [18]: 214
ECL signal [19]: 330
ECL signal [20]: 355
B4: Fab VH1-46_IGHD6-6*01_IGHJ1*01 S102A/S103P/S104F/H111F G56A & L6_IGKJ1*01 (Fab, V domains shown)
VH: B3 VH with A55G, G56A
VL: not shown
notes: Fab (CH1 with His6/Flag tags from Plasmid A, kappa CL from Plasmid C); also called APFF G56A

Kd [21]: 500 nM
koff [21]: 0.29 s⁻¹
kon [21]: 500000 M⁻¹ s⁻¹
B5: Fab VH1-46_IGHD3-10*01_IGHJ4*01 & L12_IGKJ1*01 (Fab, V domains shown)
VH: QVQLVQSGAEVKKPGASVKVSCKASGYTFTSYYMHWVRQAPGQGLEWMGIINPSGGSTSYAQKFQGRVTMTRDTSTSTVYMELSSLRSEDTAVYYCAREYYYGSGSYYNDYFDYWGQGTLVTVSS
VL: not shown
notes: Germline Fab made in E. coli: VH in Plasmid A (CH1, His6 and Flag tags), kappa VL in Plasmid C (kappa CL)

Kd [21]: 4800 nM
B6: Fab VH5-51_IGHD5-18*01>3_IGHJ4*01 & V3-4_IGLJ1*01 (Fab, V domains shown)
VH: EVQLVQSGAEVKKPGESLKISCKGSGYSFTSYWIGWVRQMPGKGLEWMGIIYPGDSDTRYSPSFQGQVTISADKSISTAYLQWSSLKASDTAMYYCARRGYSYGYDYFDYWGQGTLVTVSS
VL: QTVVTQEPSFSVSPGGTVTLTCGLSSGSVSTSYYPSWYQQTPGQAPRTLIYSTNTRSSGVPDRFSGSILGNKAALTITGAQADDESDYYCVLYMGSGISYVFGTGTKVTVL
notes: Germline Fab made in E. coli: VH in Plasmid A (CH1, His6 and Flag tags), lambda VL in Plasmid E (lambda CL)

Signal/Noise (Recombinant Human DLL4 [22]): 23.2
Signal/Noise (Recombinant Human DLL4 [23]): 42.5
B7: Fab VH5-51_IGHD5-18*01>3_IGHJ4*01 G104D & V3-4_IGLJ1*01 (Fab, V domains shown)
VH: B6 VH with G104D
VL: B6 VL
notes: Fab; VH-CH1 (His6/Flag, Plasmid A) and VL-lambda CL (Plasmid E)
